Source: patent publication US20170002055A1, “Novel peptides and combination of peptides for use in immunotherapy against ovarian cancer and other cancers” (immatics biotechnologies GmbH, priority 2015, published 2017)

Key:
[1] = tested on: CD8+ T cells; assay: In vitro immunogenicity: priming of CD8+ T cells with artificial APCs loaded with peptide/MHC and anti-CD28, multimer readout; assay type: cell-based, human; details: for Wells positive [%]: HLA-A*02 restricted peptides, percentage of positive wells; for donors: HLA-A*02, percentage of positive donors; for wells: HLA-A*02, percentage of positive wells
Source text: In order to obtain information regarding the immunogenicity of the TUMAPs of the present invention, the inventors performed investigations using an in vitro T-cell priming assay based on repeated stimulations of CD8+ T cells with artificial antigen presenting cells (aAPCs) loaded with peptide/MHC complexes and anti-CD28 antibody.
In order to perform in vitro stimulations by artificial antigen presenting cells loaded with peptide-MHC complex (pMHC) and anti-CD28 antibody, the inventors first isolated CD8+ T cells from fresh HLA-A*02 leukapheresis products via positive selection using CD8 microbeads (Miltenyi Biotec, Bergisch-Gladbach, Germany) of healthy donors obtained from the University clinics Mannheim, Germany, after informed consent.
PBMCs and isolated CD8+ lymphocytes were incubated in T-cell medium (TCM) until use consisting of RPMI-Glutamax (Invitrogen, Karlsruhe, Germany) supplemented with 10% heat inactivated human AB serum (PAN-Biotech, Aidenbach, Germany), 100 U/ml Penicillin/100 μg/ml Streptomycin (Cambrex, Cologne, Germany), 1 mM sodium pyruvate (CC Pro, Oberdorla, Germany), 20 μg/ml Gentamycin (Cambrex). 2.5 ng/ml IL-7 (PromoCell, Heidelberg, Germany) and 10 U/ml IL-2 (Novartis Pharma, Nürnberg, Germany) were also added to the TCM at this step.
Generation of pMHC/anti-CD28 coated beads, T-cell stimulations and readout was performed in a highly defined in vitro system using four different pMHC molecules per stimulation condition and 8 different pMHC molecules per readout condition.
The purified co-stimulatory mouse IgG2a anti human CD28 Ab 9.3 (Jung et al., 1987) was chemically biotinylated using Sulfo-N-hydroxysuccinimidobiotin as recommended by the manufacturer (Perbio, Bonn, Germany). Beads used were 5.6 μm diameter streptavidin coated polystyrene particles (Bangs Laboratories, Illinois, USA).
pMHC used for positive and negative control stimulations were A*0201/MLA-001 (peptide […] (SEQ ID NO. 664) from modified Melan-A/MART-1) and A*0201/DDX5-001 ([…] from DDX5, SEQ ID NO. 665), respectively.
800.000 beads/200 μl were coated in 96-well plates in the presence of 4×12.5 ng different biotin-pMHC, washed and 600 ng biotin anti-CD28 were added subsequently in a volume of 200 μl. Stimulations were initiated in 96-well plates by co-incubating […] CD8+ T cells with 2×10^5 washed coated beads in 200 μl TCM supplemented with 5 ng/ml IL-12 (PromoCell) for 3 days at 37° C. Half of the medium was then exchanged by fresh TCM supplemented with 80 U/ml IL-2 and incubating was continued for 4 days at 37° C. This stimulation cycle was performed for a total of three times. For the pMHC multimer readout using 8 different pMHC molecules per condition, a two-dimensional combinatorial coding approach was used as previously described (Andersen et al., 2012) with minor modifications encompassing coupling to 5 different fluorochromes. Finally, multimeric analyses were performed by staining the cells with Live/dead near IR dye (Invitrogen, Karlsruhe, Germany), CD8-FITC antibody clone SK1 (BD, Heidelberg, Germany) and fluorescent pMHC multimers. For analysis, a BD LSRII SORP cytometer equipped with appropriate lasers and filters was used. Peptide specific cells were calculated as percentage of total CD8+ cells. Evaluation of multimeric analysis was done using the FlowJo software (Tree Star, Oregon, USA). In vitro priming of specific multimer+ CD8+ lymphocytes was detected by comparing to negative control stimulations.

[2] = biological target: HLA-A*02:01 (Homo sapiens, UniProt P04439, D140Y/D185E/D98H/E176V/E277Q/G131W/G231S/I119V/I121R/I166T/I218V/L300P/L318F/N151K/N90K/P208A/P217A/Q86G/Q94H/R138H/R169H/T345S); assay: MHC binding assay (UV-ligand exchange, β2m ELISA, peptide exchange yield); details: MHC class I binding score; binding to HLA-A*02:01 ranged by peptide exchange yield (UV-ligand exchange, β2m ELISA)
Method in brief: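 Binding is expressed as peptide exchange yield: stabilized MHC complexes were quantified by β2m ELISA, with a 450 nm TMB read-out on streptavidin-coated plates. Complexes came from UV-ligand exchange, where UV irradiation cleaves a photolabile peptide so the candidate peptide can load.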

Row | Peptide exchange [2] | Substance | also measured
1 | “++++” (≧75% = ++++) | 19 (FMVDNEAIYDI; listed as Homo sapiens) [compound 19] | Wells positive [%] [1]: “++” (20%-49% = ++)
2 |  | 648 (LLWGNAIFL; listed as Homo sapiens) [compound 648] | donors [1]: +++ (50%-69 = +++); wells [1]: ++ (20%-49% = ++)
3 |  | 663 (KIQEMQHFL; listed as Homo sapiens) [compound 663] | donors [1]: +++ (50%-69 = +++); wells [1]: + (<20% = +)
4 | “++++” (≧75% = ++++) | 8 (FTLGNVVGMYL; listed as Homo sapiens) [compound 8] | Wells positive [%] [1]: “+” (<20% = +)
5 | “++” (≧20% = ++) | 511 (FLDPYCSASV; listed as Homo sapiens) [compound 511] | Wells positive [%] [1]: “+” (<20% = +)
6 | “++” (≧20% = ++) | 191 (LLQEGQALEYV; listed as Homo sapiens) [compound 191] | Wells positive [%] [1]: “+++” (50%-69% = +++)
7 | “+++” (≧50 = +++) | 40 (TLLVKVFSV; listed as Homo sapiens) [compound 40] | Wells positive [%] [1]: “++” (20%-49% = ++)
8 | “+++” (≧50 = +++) | 2 (SLLEADPFL; listed as Homo sapiens) [compound 2] | Wells positive [%] [1]: “+” (<20% = +)
9 | “++” (≧20% = ++) | 157 (SLNDEVPEV; listed as Homo sapiens) [compound 157] | Wells positive [%] [1]: “+++” (50%-69% = +++)
10 |  | 662 (KIQEILTQV; listed as Homo sapiens) [compound 662] | donors [1]: +++ (50%-69 = +++); wells [1]: + (<20% = +)
11 | “+++” (≧50 = +++) | 113 (GLLPTPLFGV; listed as Homo sapiens) [compound 113] | Wells positive [%] [1]: “+” (<20% = +)
12 | “+++” (≧50 = +++) | 152 (ILFEDIFDV; listed as Homo sapiens) [compound 152] | Wells positive [%] [1]: “++” (20%-49% = ++)
13 | “+++” (≧50 = +++) | 199 (ALQDVPLSSV; listed as Homo sapiens) [compound 199] | Wells positive [%] [1]: “+” (<20% = +)
14 | “++++” (≧75% = ++++) | 60 (SLTIDGIYYV; listed as Homo sapiens) [compound 60] | Wells positive [%] [1]: “++++” (> = 70% = ++++)
15 |  | 652 (TLWYRAPEV; listed as Homo sapiens) [compound 652] | donors [1]: ++++ (> = 70% = ++++); wells [1]: +++ (50%-69 = +++)
16 | “+++” (≧50 = +++) | 384 (ILFANPNIFV; listed as Homo sapiens) [compound 384] | Wells positive [%] [1]: “+” (<20% = +)
17 |  | 659 (ILFPDIIARA; listed as Homo sapiens) [compound 659] | donors [1]: +++ (50%-69 = +++); wells [1]: + (<20% = +)
18 | “++” (≧20% = ++) | 538 (LLLAHIIAL; listed as Homo sapiens) [compound 538] | 
19 | “++” (≧20% = ++) | 217 (ALIHPVSTV; listed as Homo sapiens) [compound 217] | 
20 | “+++” (≧50 = +++) | 239 (AAFAGKLLSV; listed as Homo sapiens) [compound 239] | 
21 | “++” (≧20% = ++) | 211 (LLWPGAALL; listed as Homo sapiens) [compound 211] | 
22 | “++” (≧20% = ++) | 43 (VLSSLEINI; listed as Homo sapiens) [compound 43] | 
23 | “+++” (≧50 = +++) | 500 (SLMEDQVLQL; listed as Homo sapiens) [compound 500] | 
24 | “+++” (≧50 = +++) | 183 (FGLDLVTEL; listed as Homo sapiens) [compound 183] | 
25 | “+++” (≧50 = +++) | 171 (LLLPLQILL; listed as Homo sapiens) [compound 171] | 
26 | “+++” (≧50 = +++) | 485 (NVPDSFNEV; listed as Homo sapiens) [compound 485] | 
27 | “+++” (≧50 = +++) | 276 (ALFTFSPLTV; listed as Homo sapiens) [compound 276] | 

Row | Peptide exchange [2] | Substance | also measured
28 | “+++” (≧50 = +++) | 563 (WLLPYNGVTV; listed as Homo sapiens) [compound 563] | 
29 | “+++” (≧50 = +++) | 161 (ALLEGVNTV; listed as Homo sapiens) [compound 161] | 
30 | “++” (≧20% = ++) | 459 (ALITEVVRL; listed as Homo sapiens) [compound 459] | 
31 | “+++” (≧50 = +++) | 469 (YLASDEITTV; listed as Homo sapiens) [compound 469] | 
32 | “+++” (≧50 = +++) | 149 (NLLELFVQL; listed as Homo sapiens) [compound 149] | 
33 | “++” (≧20% = ++) | 180 (FQIDPHSGLVTV; listed as Homo sapiens) [compound 180] | 
34 | “++” (≧20% = ++) | 229 (RLPGPLGTV; listed as Homo sapiens) [compound 229] | 
35 | “++” (≧20% = ++) | 32 (KLDDLTQDLTV; listed as Homo sapiens) [compound 32] | 
36 | “++” (≧20% = ++) | 579 (NLMEMVAQL; listed as Homo sapiens) [compound 579] | 
37 | “++” (≧20% = ++) | 33 (VLLSLLEKV; listed as Homo sapiens) [compound 33] | 
38 | “++” (≧20% = ++) | 524 (ALIENLTHQI; listed as Homo sapiens) [compound 524] | 
39 | “++” (≧20% = ++) | 145 (FLATSGTLAGI; listed as Homo sapiens) [compound 145] | 
40 | “+++” (≧50 = +++) | 267 (ALQDFLLSV; listed as Homo sapiens) [compound 267] | 
41 | “+++” (≧50 = +++) | 287 (FLNEFFLNV; listed as Homo sapiens) [compound 287] | 
42 | “++++” (≧75% = ++++) | 100 (YLLSTNAQL; listed as Homo sapiens) [compound 100] | 
43 | “++” (≧20% = ++) | 381 (FIDEAYVEV; listed as Homo sapiens) [compound 381] | 
44 | “+++” (≧50 = +++) | 449 (KLAEGLDIQL; listed as Homo sapiens) [compound 449] | 
45 | “++++” (≧75% = ++++) | 438 (KLLPLAGLYL; listed as Homo sapiens) [compound 438] | 
46 | “++++” (≧75% = ++++) | 349 (SLTEYLQNV; listed as Homo sapiens) [compound 349] | 
47 | “+++” (≧50 = +++) | 245 (SMIDDLLGV; listed as Homo sapiens) [compound 245] | 
48 | “+++” (≧50 = +++) | 249 (LLDGFLVNV; listed as Homo sapiens) [compound 249] | 
49 | “+++” (≧50 = +++) | 29 (KMLGIPISNILMV; listed as Homo sapiens) [compound 29] | 
50 | “+++” (≧50 = +++) | 238 (YLISFQTHI; listed as Homo sapiens) [compound 238] | 
51 | “+++” (≧50 = +++) | 134 (YLQELIFSV; listed as Homo sapiens) [compound 134] | 
52 | “+++” (≧50 = +++) | 448 (NLLETKLQL; listed as Homo sapiens) [compound 448] | 
53 | “++” (≧20% = ++) | 84 (VTFGEKLLGV; listed as Homo sapiens) [compound 84] | 
